Laboratory results: paper PMC5748837, “Biochemical characterization of INTS3 and C9ORF80, two subunits of hNABP1/2 heterotrimeric complex in nucleic acid binding”

How the values were obtained:
Experiment in all cases: EMSA; EMSA: 20 mM HEPES pH 7.3, 100 mM KCl, 1 mM MgCl2, 1 mg/ml BSA, 1 mM DTT, 6% glycerol, 0.5 nM 32P substrate, 30 min on ice; 5% native PAGE, 1x TBE, 4°C
INTS3FL = INTS3FL (human, UniProt Q68E01-2 1-1042); conditions: protein: recombinant, tags: GST cleaved (PreScission)
C9ORF80 = target: T1, C9ORF80 (human, UniProt Q9NRY2 1-104); conditions: protein: recombinant, tags: His (pET28a)
T1 sequence: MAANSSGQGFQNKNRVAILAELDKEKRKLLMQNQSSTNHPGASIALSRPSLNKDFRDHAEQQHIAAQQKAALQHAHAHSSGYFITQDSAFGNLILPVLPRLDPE

hNABP1 (hSSB2) = hNABP1 (hSSB2) (human, UniProt Q96AH0 1-204); conditions: protein: recombinant; tags: His; label: 5'-32P
Chain of hNABP1 (hSSB2) (Q96AH0 whole entry): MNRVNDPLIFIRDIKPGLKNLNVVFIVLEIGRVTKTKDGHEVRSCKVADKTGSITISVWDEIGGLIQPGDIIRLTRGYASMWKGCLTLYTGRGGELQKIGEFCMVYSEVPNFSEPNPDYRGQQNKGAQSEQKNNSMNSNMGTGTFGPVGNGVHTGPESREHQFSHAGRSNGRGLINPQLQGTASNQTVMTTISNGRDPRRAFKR

[1] = target: INTS3FL in co-expressed complex;hNABP1 (hSSB2);C9ORF80 (human;human;human, UniProt Q68E01-2;Q96AH0;Q9NRY2 1-1042;1-204;1-104, ||); conditions: protein: recombinant;recombinant;recombinant; tags: GST (pGEX-6P-1); copies: 1;1;1; label: 5'-32P
Chain of INTS3FL in co-expressed complex;hNABP1 (hSSB2);C9ORF80 (Q68E01 other isoform, or with tags, fused parts or gaps ||, chain 1 of 2): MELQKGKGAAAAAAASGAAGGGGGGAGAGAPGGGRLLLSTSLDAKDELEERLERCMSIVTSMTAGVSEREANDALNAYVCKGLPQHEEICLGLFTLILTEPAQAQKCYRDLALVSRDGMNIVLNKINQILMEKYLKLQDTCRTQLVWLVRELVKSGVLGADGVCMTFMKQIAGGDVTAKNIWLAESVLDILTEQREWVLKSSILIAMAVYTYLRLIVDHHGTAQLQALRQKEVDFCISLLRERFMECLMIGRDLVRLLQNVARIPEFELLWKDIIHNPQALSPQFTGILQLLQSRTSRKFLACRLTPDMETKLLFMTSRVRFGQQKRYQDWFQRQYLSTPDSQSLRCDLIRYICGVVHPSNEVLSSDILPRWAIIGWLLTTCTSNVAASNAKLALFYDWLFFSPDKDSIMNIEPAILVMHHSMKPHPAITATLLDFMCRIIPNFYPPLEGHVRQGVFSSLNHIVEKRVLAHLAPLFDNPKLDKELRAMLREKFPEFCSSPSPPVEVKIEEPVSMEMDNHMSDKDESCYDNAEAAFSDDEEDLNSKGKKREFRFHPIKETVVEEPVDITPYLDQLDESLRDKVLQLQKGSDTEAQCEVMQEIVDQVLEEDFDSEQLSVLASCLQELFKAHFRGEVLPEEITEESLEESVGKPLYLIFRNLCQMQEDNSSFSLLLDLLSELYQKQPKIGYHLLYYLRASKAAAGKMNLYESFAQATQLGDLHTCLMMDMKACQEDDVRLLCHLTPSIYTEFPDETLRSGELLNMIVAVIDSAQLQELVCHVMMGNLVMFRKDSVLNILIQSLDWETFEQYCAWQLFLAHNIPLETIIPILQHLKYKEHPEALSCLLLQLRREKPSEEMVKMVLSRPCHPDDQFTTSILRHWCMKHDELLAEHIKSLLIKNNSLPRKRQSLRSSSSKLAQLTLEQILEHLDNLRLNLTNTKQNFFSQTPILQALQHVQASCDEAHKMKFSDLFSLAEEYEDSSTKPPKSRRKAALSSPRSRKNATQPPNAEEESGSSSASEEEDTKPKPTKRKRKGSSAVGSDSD
Chain of INTS3FL in co-expressed complex;hNABP1 (hSSB2);C9ORF80 (Q96AH0 whole entry, chain 2 of 2): as the sequence (Q96AH0 whole entry) above

INTS3C = INTS3C (human, UniProt Q68E01-2 514-1042); conditions: protein: recombinant, tags: His (pET28a), label: 5'-32P
Chain of INTS3C (Q68E01 515-1043): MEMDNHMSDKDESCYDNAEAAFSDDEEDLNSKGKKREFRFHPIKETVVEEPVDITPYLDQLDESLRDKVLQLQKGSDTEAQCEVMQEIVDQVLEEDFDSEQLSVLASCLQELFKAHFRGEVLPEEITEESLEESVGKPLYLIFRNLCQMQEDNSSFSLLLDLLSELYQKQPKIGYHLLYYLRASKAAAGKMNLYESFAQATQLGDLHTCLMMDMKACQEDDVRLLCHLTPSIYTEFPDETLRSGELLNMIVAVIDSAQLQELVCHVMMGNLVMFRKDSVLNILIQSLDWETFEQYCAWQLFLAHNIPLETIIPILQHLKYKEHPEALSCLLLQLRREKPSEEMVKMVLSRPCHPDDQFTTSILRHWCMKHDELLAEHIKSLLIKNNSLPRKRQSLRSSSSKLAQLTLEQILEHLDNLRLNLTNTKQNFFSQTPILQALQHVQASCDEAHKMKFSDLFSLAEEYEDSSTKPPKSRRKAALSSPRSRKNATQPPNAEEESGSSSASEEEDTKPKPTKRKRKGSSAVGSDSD

hNABP2 (hSSB1) = hNABP2 (hSSB1) (human, UniProt Q9BQ15 1-211); conditions: protein: recombinant; tags: His; label: 5'-32P
Chain of hNABP2 (hSSB1) (Q9BQ15 whole entry): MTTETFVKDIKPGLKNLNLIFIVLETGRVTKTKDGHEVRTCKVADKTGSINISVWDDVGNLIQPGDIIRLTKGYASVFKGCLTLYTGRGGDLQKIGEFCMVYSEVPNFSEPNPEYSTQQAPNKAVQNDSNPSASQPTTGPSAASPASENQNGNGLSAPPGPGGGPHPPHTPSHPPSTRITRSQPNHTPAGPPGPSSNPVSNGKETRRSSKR

[2] = target: INTS3FL in co-expressed complex;hNABP2 (hSSB1);C9ORF80 (human;human;human, UniProt Q68E01-2;Q9BQ15;Q9NRY2 1-1042;1-211;1-104, ||); conditions: protein: recombinant;recombinant;recombinant; tags: GST (pGEX-6P-1); copies: 1;1;1; label: 5'-32P
Chain of INTS3FL in co-expressed complex;hNABP2 (hSSB1);C9ORF80 (Q68E01 other isoform, or with tags, fused parts or gaps ||, chain 1 of 2): as the sequence (Q68E01 other isoform, or with tags, fused parts or gaps ||, chain 1 of 2) above
Chain of INTS3FL in co-expressed complex;hNABP2 (hSSB1);C9ORF80 (Q9BQ15 whole entry, chain 2 of 2): as the sequence (Q9BQ15 whole entry) above

[3] = label: 5'-32P on one strand, blunt

Chain of INTS3FL (Q68E01 other isoform, or with tags, fused parts or gaps): as the sequence (Q68E01 other isoform, or with tags, fused parts or gaps ||, chain 1 of 2) above

B1: DNA:RNA hybrid 30-mer (DNA:RNA)
DNA: GAGCTACCAGCTACCCCGTATGTCAGAGAG
RNA: CUCUCUGACAUACGGGGUAGCUGGUAGCUC
B1: no binding (INTS3FL; [3]); no binding (C9ORF80; [3]).

B2: dsRNA 30-mer (dsRNA)
RNA 1: GAGCUACCAGCUACCCCGUAUGUCAGAGAG
RNA 2: B1 RNA
B2: no binding (INTS3FL; [3]); no binding (C9ORF80; [3]).

Binder TTTTTTTTTTTTTTTTTTTTTTTTTTTTTT (ssDNA) [dT30] has a Kd (C9ORF80; label: 5'-32P) of 13.2 ± 1.2 µM, a Kd (hNABP1 (hSSB2)) of 0.15 ± 0.04 µM and a Kd [1] of 0.6 ± 0.09 µM. For the same binder, the Kd (INTS3C) was 7.2 ± 1.2 µM.

B3: dT90 (ssDNA)
DNA: TTTTTTTTTTTTTTTTTTTTTTTTTTTTTTTTTTTTTTTTTTTTTTTTTTTTTTTTTTTTTTTTTTTTTTTTTTTTTTTTTTTTTTTTTT
B3: binds (INTS3FL; label: 5'-32P); binds (C9ORF80; label: 5'-32P).

With UUUUUUUUUUUUUUUUUUUUUUUUUUUUUU (ssRNA) [rU30] the Kd (INTS3FL; label: 5'-32P) was 5.6 ± 1.2 µM, the Kd (hNABP2 (hSSB1)) was 0.06 ± 0.02 µM and the Kd [2] was 0.5 ± 0.07 µM. The Kd (INTS3C; chain copies: 2) was 1.2 ± 0.8 µM.

B4: dT60 (ssDNA)
DNA: TTTTTTTTTTTTTTTTTTTTTTTTTTTTTTTTTTTTTTTTTTTTTTTTTTTTTTTTTTTT
B4: binds (INTS3FL; label: 5'-32P).

B5: DNA 60-mer (random) (ssDNA)
DNA: ACGCAGTTGAGTATTCTACAGAGTTGGCGTGAGCTACCAGCTACCCCGTATGTCAGAGAG
B5 showed a Kd (INTS3FL; label: 5'-32P) of 6.4 ± 0.9 µM.

With GAGCTACCAGCTACCCCGTATGTCAGAGAG (ssDNA) [DNA 30-mer (random)] the Kd (INTS3FL; label: 5'-32P) was 13 ± 0.8 µM.
